Assay [1] deals with T1, mouse LAG-3 on transfected cells (mouse, UniProt Q61790 24-521).
T1 construct: whole, on cells; Flp-In-CHO cells transfected with mouse LAG-3; also called cell surface mouse LAG-3; murine LAG-3
T1 sequence (looked up): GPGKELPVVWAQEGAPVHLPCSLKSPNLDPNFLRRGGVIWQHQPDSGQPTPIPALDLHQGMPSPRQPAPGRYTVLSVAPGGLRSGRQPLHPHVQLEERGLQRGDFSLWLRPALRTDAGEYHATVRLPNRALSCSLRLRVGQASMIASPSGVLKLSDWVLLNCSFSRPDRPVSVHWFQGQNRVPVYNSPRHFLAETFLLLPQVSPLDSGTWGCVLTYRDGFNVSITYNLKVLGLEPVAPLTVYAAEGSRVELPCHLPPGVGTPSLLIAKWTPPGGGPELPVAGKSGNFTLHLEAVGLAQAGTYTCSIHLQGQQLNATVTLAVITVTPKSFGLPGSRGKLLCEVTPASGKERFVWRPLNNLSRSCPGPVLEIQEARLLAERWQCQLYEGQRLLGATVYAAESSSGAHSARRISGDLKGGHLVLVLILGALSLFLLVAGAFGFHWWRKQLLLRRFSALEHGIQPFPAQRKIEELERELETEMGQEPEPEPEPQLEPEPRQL
The assay is described as follows: FACS on mouse LAG-3 transfected cells. On the procedure:
Similarly, cross-reactivity to cynomolgus or murine LAG-3 was tested by FACS with cyno or murine LAG-3 transfected cell lines.

Assay [2] concerns the target T2, human LAG-3 on transfected cells (human, UniProt P18627 23-525).
T2 construct: whole, on cells; Flp-In-293 or CHO-K1 cells transfected with full length human LAG-3; also called cell surface human LAG-3
T2 sequence (looked up): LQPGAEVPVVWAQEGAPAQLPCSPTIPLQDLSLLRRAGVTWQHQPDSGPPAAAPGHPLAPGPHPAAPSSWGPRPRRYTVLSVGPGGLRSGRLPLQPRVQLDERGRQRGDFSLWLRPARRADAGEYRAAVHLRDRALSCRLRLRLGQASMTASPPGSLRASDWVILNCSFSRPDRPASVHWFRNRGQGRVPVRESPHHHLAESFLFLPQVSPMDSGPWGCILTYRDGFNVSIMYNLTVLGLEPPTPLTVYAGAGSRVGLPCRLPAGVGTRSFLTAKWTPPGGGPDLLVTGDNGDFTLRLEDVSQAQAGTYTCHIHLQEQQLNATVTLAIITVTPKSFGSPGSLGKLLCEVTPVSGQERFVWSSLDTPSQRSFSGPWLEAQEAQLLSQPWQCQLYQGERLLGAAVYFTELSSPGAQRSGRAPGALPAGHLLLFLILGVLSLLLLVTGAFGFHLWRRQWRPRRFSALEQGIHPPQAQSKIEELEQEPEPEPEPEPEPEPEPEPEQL
Nature of the assay: FACS affinity on transfected cells.

The target of assay [3] is T3, cynomolgus LAG-3 on transfected cells (cynomolgus monkey).
T3 construct: whole, on cells; 293F cells transfected with cynomolgus LAG-3; also called cell surface cynomolgus LAG-3; monkey LAG-3
The assay is described as follows: FACS affinity on transfected cells.

For assay [4], the target named is T4, human LAG-3 protein (SPR analyte) (human, UniProt P18627 23-450).
T4 construct: extracellular domain
T4 sequence (looked up): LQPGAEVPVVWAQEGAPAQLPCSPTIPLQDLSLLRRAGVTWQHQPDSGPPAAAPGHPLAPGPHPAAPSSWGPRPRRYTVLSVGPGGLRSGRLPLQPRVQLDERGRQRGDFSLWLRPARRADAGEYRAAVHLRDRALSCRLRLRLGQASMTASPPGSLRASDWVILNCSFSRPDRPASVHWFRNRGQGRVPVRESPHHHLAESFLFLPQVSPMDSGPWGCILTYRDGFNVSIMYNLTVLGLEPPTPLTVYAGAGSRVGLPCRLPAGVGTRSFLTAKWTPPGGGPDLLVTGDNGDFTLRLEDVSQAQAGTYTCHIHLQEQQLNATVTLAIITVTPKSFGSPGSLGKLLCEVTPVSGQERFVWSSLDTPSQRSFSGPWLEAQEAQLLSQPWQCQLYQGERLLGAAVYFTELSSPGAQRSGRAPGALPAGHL
The assay is described as follows: SPR Biacore 8K, Ab as ligand, LAG-3 as analyte.

Assay [5] addresses T5, mouse LAG-3 protein (SPR analyte) (mouse, UniProt Q61790 24-442).
T5 construct: extracellular domain
T5 sequence (looked up): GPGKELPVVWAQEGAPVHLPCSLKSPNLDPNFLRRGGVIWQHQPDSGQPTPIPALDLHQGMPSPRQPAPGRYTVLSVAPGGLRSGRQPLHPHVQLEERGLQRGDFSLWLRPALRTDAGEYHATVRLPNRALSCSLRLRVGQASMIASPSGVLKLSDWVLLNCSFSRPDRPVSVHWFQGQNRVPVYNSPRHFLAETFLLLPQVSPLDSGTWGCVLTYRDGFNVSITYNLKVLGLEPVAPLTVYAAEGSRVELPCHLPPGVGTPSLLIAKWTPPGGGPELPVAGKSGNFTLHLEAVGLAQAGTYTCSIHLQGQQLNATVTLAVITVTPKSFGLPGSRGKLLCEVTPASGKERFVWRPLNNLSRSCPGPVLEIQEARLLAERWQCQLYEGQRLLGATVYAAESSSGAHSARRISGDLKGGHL
The assay is described as follows: SPR Biacore 8K, Ab as ligand, LAG-3 as analyte.

In a further assay the target is human CD4 (human, UniProt P01730 26-390, limits assumed). Nature of the assay: ELISA, plates coated with human CD4, goat anti-human IgG Fc-HRP. On the procedure:
Cross-reactivity to human CD4 was measured by ELISA. Plates were coated with human CD4 at 1 μg/ml overnight at 4° C. After blocking and washing, 1 μg/ml of LAG-3 antibodies were added to the plates and incubated at room temperature for 1 h. The plates were then washed and subsequently incubated with goat-anti human IgG Fc-HRP for 45 min. After washing, TMB substrate was added and the color reaction was stopped by 2M HCl. The absorbance at 450 nm was read using a microplate reader.

Assay [6] addresses T2, human LAG-3 on transfected cells. The assay is described as follows: FACS, serial dilutions on human LAG-3 transfected cells, PE-labeled secondary antibody.
Assay [7] concerns the target T6, mouse Fc (mFc)-tagged human LAG-3 (human, UniProt P18627 23-450).
T6 construct: extracellular domain
T6 sequence (looked up): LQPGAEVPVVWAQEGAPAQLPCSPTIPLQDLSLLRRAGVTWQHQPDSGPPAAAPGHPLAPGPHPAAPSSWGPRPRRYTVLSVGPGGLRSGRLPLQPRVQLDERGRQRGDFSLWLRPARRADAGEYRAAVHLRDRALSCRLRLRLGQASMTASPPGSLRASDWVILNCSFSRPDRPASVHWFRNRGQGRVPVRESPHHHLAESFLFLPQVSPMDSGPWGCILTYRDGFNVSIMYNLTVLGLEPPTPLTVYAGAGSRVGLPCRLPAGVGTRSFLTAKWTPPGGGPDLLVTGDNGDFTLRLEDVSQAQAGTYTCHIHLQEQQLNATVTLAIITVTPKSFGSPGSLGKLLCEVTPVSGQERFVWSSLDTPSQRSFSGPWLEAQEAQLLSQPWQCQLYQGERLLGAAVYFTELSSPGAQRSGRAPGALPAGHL
Nature of the assay: ELISA blocking: antibody pre-mixed with mFc-tagged human LAG-3, added to plates coated with human LSECtin (blocked ligand); detection goat anti-mouse IgG Fc-HRP. On the procedure:
(§1) 96-well plates were coated with human LSECtin or Galectin-3 at 0.5 μg/ml overnight at 4° C., respectively. […] After blocking and washing, the mixture was transferred to the plates and incubated at room temperature for 1 h. The plates were then washed and subsequently incubated with the secondary antibody goat-anti Mouse IgG Fc-HRP for 1 h. After washing, TMB substrate was added and the color reaction was stopped by 2M HCl. The absorbance at 450 nm was read using a microplate reader.

In assay [8] the target is T6, mouse Fc (mFc)-tagged human LAG-3. The assay is described as follows: ELISA blocking: antibody pre-mixed with mFc-tagged human LAG-3, added to plates coated with human Galectin-3 (blocked ligand); detection goat anti-mouse IgG Fc-HRP. On the procedure:
as §1

B1: W3396-R2-2 (Fc fusion)
VHH: QVQLVESGGGVVQPGGSLRLSCAASGLTLSQYTMGWFRQAPGKERELVAAIHWTSSVTDYADSVYGRFTISRDDSKNTGYLQMNSLRAEDTAVYYCAATHYYTHRGPFDYWGQGTLVTVSS
Consider B1, for which the results for the EC50 in assay [1] and in [6] were 0.13 nM and 0.228 nM, respectively. Further, the values for the Kd in assay [2], in [4] and in assay [5] were 0.46 nM, 0.165 nM and below 0.000575 nM, respectively. For the same molecule, the Bmax in assay [3] was determined as 300 pM. Further, the binding result with human CD4 is “no binding (tested: 33.4 nM)”. Besides, the figures for the IC50 in assay [7] and in [8] were 1.61 nM and 1.23 nM, respectively.

The values are drawn from patent US20220169722A1 (WUXI BIOLOGICS IRELAND, published 2022).
